Test results published in patent US9050374B2, “Inhibitors against endosomal/lysosomal enzymes” (UNIVERSITY COURT OF THE UNIVERSITY OF DUNDEE, priority 2011, dated 2015).
“Also recorded” adds a separate entry of the source. Each block holds one molecule with its values, some of them ahead of it. Where a SMILES comes first, the peptide text is derived from it. [ ]: non-standard residue; d: D form. The star is where a group is joined. Sta = CC(C)C[C@H](N)[C@@H](O)CC(=O)O; Isovaleryl = CC(C)CC(=O)*

Assays:
[1] = tested on: endo-lysosomal proteases of purified lysosomes from mouse macrophages; assay: In vitro digest of apo-HRP with purified macrophage lysosomes; format: biochemical; settings: SDS-PAGE
Protocol: Lysosomes isolated from bone-marrow derived macrophages using a Percoll density-gradient fractionation (400 ng/μL, 3.6 μL) were resuspended in assay buffer (50 mM Citrate, pH 4.5, 0.5% Triton X-100; 59 μL) Inhibitor (70 μM; 12 μL in PBS+5% DMSO) was added and the mixture incubated for 15 minutes. Protein substrate (1 mg/mL in PBS, 9 μL) was added to the mixture and the reaction was incubated at 37° C. At the indicated timepoints 20 μL of the reaction mixture was removed and boiled with LDS-sample buffer and analysed by SDS-PAGE.

[2] = Solubility in aqueous media; format: physicochemical; settings: applicant's own observation
[3] = cited from earlier work
Cathepsin D and E = settings: read-out: Ki for inhibition of Cathepsin D and E; cited from earlier work
mouse Cathepsin L = biological target: T1, mouse Cathepsin L (Mus musculus, UniProt P06797); assay: Inhibition studies of recombinant Cathepsin L; format: biochemical; settings: compared among mutants R77C, L117C, T102C; 5 ng Cathepsin L/well
T1 construct: purchased R&D systems
T1 sequence (P06797 114-333 limits assumed): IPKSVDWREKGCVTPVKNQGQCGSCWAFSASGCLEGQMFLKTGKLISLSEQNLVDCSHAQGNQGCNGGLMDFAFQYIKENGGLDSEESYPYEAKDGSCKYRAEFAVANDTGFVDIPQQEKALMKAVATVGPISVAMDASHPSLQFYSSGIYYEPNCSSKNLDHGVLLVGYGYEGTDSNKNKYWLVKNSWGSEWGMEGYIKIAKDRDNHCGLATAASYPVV
Protocol: All protease inhibition studies were carried out as described previously^7-9 on a FLUOstar Optima Fluorimeter (BMG) with 360 nm excitation and 460 nm emission wavelength filters as described previously.^1-2,9-10 Recombinant Cathepsin D and Cathepsin S were purchased from R&D Systems.
The mixture was gently shaken at room temperature for 5 minutes prior to the addition of Z-Leu-Arg-AMC (40 μM in assay buffer, made from a 1 mM DMSO Stock solution). 7-amino-4-methylcoumarin release was measured by fluorescence spectroscopy over time. Initial rates were plotted against inhibitor concentration^11.

COS-7 cells, EGFr = assay: Effect on EGF receptor downregulation and EGF signalling (Western blot); format: cell-based
Protocol: COS7 cells growing in 12-well tissue culture plates were preincubated for 1 hour with or without cystatin C (0.35 mg/ml) or CPI (0.32 mg/ml) and then stimulated with 100 ng/ml EGF for the times shown. The cells were scraped from the well in 50 μl lysis buffer containing 50 mM Tris, 150 mM NaCl, 1 mM EGTA, 1 mM EDTA, 1% NP40 plus protease inhibitors (Roche, Miniprotease tablet). […] The blot was then stripped and reprobed for phosphor-Erk (p42/44 MAP kinase; Cell signalling) and as as loading control, Rsk2 (Santa Cruz) with appropriate secondary antibodies. The signals were quantitated using ImageJ analysis software.

AEP = biological target: T2, AEP (Homo sapiens, UniProt Q99538); settings: via a distinct binding site; read-out: Ki for inhibition of AEP; cited from earlier work
T2 sequence (Q99538 18-323): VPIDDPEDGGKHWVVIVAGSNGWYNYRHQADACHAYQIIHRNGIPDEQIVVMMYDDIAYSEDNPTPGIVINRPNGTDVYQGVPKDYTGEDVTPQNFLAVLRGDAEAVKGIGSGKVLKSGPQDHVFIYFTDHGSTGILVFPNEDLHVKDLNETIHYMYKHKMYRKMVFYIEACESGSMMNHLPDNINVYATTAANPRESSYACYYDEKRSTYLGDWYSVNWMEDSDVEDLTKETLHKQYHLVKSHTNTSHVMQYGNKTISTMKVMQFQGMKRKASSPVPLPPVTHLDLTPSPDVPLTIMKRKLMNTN

Molecule: CC(C)CC(=O)N[C@H](C(=O)N[C@H](C(=O)N[C@@H](CC(C)C)[C@@H](O)CC(=O)N[C@@H](C)C(=O)N[C@@H](CC(C)C)[C@@H](O)CC(=O)O)C(C)C)C(C)C [pepstatin A] (Isovaleryl-VV[Sta]A[Sta]-OH)
- stabilization of apo-HRP against lysosomal degradation ([1]; FIG. 9, listed as pepstatin): little or no stabilization
- water solubility, in words [2]: insolubility; also recorded: very insoluble
- solubility in aqueous media, in words [3]: virtual insolubility in aqueous media
- Ki (Cathepsin D and E): 0.1 nM

- inhibitory properties of cystatin C mutants (mouse Cathepsin L): most favourable inhibitory properties
B1: T102C: cystatin C mutant with threonine 102 replaced by cysteine, C-terminal 6His-tag (protein)
chain: SSPGKPPRLVGGPMDASVEEEGVRRALDFAVGEYNKASNDMYHSRALQVVRARKQIVAGVNYFLDVELGRTTCTKCQPNLDNCPFHDQPHLKRKAFCSFQIYAVPWQGTMTLSKSTCQDAHHHHHH

B2: cystatin C: naturally occurring 14 kDa protein that inhibits PLCPs and AEP (protein, listed as Homo sapiens)
chain: MAGPLRAPLLLLAILAVALAVSPAAGSSPGKPPRLVGGPMDASVEEEGVRRALDFAVGEYNKASNDMYHSRALQVVRARKQIVAGVNYFLDVELGRTTCTKTQPNLDNCPFHDQPHLKRKAFCSFQIYAVPWQGTMTLSKSTCQDA
modifications: Cystatin C
- stabilization of apo-HRP against lysosomal degradation ([1]; FIG. 9, listed as Cystatin C): appears to protect a fragment only
- stabilization of apo-HRP against lysosomal degradation ([1]; FIG. 9, listed as cystatin): little or no stabilization
- EGFr level / downregulation after EGF challenge (COS-7 cells, EGFr; 1 hour preincubation, 100 ng/ml EGF up to 90 min, Western blot): suppressed EGFr downregulation but not to the same extent as CPI
- activation of MAP kinases Erk1/2 (check for inhibitor toxicity) (COS-7 cells, EGFr; COS-7 cells stimulated with EGF): normally
- Ki (AEP): 0.2 nM
